Reference: patent US20220412975

Experiments:
[1] = tested on: COMP2 candidate peptide, (Donor) SPGFRC(Acm)EAC(Acm)PPGYS (K-Quencher)
[2] = tested on: TSP1-1 substrate, (HiLyteFluor-488)-DELSSMVLELRGLRT-K(QXL520)-NH2
[3] = tested on: (HiLyteFluor-488)-DELSSMVLELRGLRT-K(QXL520)-E-NH2
[4] = tested on: TSP1-4 substrate, (HiLyteFluor-488)-EENKELANELRRPPL-K(QXL520)-NH2
[5] = tested on: TSP1-5 substrate, (HiLyteFluor-488)-SSMVLELRGLRT-K(QXL520)-NH2
[6] = tested on: COMP1 candidate peptide, (Donor) GMQQSVRTGLPS (K-Quencher)
[7] = tested on: TSP1-2 substrate, (HiLyteFluor-488)-SSMVLELRGLRTIVT-K(QXL520)-NH2
[8] = tested on: TSP1-3 substrate, (HiLyteFluor-488)-KVTEENKELANELRR-K(QXL520)-NH2

rPro-hCD (Rat 1-217/Human 237-537)-TEV-2Strep-6His, sequence (chain, as listed by the source): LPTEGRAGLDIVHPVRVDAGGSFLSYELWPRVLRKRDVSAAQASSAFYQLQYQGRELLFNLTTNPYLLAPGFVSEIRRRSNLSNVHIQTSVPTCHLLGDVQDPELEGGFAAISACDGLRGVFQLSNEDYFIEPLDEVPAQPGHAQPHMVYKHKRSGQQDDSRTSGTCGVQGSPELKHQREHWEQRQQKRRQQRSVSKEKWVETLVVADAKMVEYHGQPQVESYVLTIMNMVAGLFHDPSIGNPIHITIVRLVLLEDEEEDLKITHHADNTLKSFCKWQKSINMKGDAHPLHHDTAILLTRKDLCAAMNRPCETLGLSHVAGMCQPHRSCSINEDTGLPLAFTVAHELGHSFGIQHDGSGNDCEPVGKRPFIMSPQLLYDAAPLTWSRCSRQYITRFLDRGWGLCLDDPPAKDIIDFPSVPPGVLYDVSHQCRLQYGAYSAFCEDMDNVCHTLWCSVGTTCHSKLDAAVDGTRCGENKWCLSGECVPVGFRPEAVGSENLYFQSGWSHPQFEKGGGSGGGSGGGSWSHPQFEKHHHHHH
rPro-hCD-FM2 (Rat 1-217/Human 237-537 FM2 (Q216K))-TEV-2Strep-6His, sequence (chain, as listed by the source Q216K): as the sequence (chain, as listed by the source) above, with Q192K counted along it

| Substance | FRET peptide cleavage (Relative Fluorescence Units over time) [1] | kcat [1] | FRET peptide cleavage (Relative Fluorescence Units over time) [2] | kcat [2] | FRET peptide cleavage (increase of fluorescence intensity) [3] | FRET peptide cleavage (Relative Fluorescence Units over time) [4] | kcat [4] | FRET peptide cleavage (Relative Fluorescence Units over time) [5] | kcat [5] | FRET peptide cleavage (Relative Fluorescence Units over time) [6] | kcat [6] | FRET peptide cleavage (Relative Fluorescence Units over time) [7] | kcat [7] | FRET peptide cleavage (Relative Fluorescence Units over time) [8] | kcat [8] |
| --- | --- | --- | --- | --- | --- | --- | --- | --- | --- | --- | --- | --- | --- | --- | --- |
| rPro-hCD (Rat 1-217/Human 237-537)-TEV-2Strep-6His | No activity was observed with COMP candidate peptides COMP1 ... or COMP2 | 6.33e-06 s⁻¹ | demonstrated the greatest specificity for the TSP1 S1 | 0.00035 s⁻¹ | It was surprisingly found that the same substrate could be used for the paralogs ADAMTS-7 and ADAMTS-12 | No significant activity was detected at the defined ADAMTS1 cleavage site E311⬇L312 from TSP1 S3 ... or TSP1 S4 | 3.33e-05 s⁻¹ | Activity was observed for the S5 substrate with ADAMTS-7 human catalytic domain constructs compared to buffer alone, however the removal of the amino DEL sequence greatly reduced the signal for activity compared to the 51 substrate | 3.33e-05 s⁻¹ | No activity was observed with COMP candidate peptides COMP1 | 1.22e-05 s⁻¹ | also cleaved the overlapping TSP1 S2 substrate | 5.33e-05 s⁻¹ | No significant activity was detected at the defined ADAMTS1 cleavage site E311⬇L312 from TSP1 S3 | 2e-05 s⁻¹ |
| rPro-hCD-FM2 (Rat 1-217/Human 237-537 FM2 (Q216K))-TEV-2Strep-6His | No activity was observed with COMP candidate peptides COMP1 ... or COMP2 | 6.5e-06 s⁻¹ | demonstrated the greatest specificity for the TSP1 S1 | 0.0004 s⁻¹ | It was surprisingly found that the same substrate could be used for the paralogs ADAMTS-7 and ADAMTS-12 | No significant activity was detected at the defined ADAMTS1 cleavage site E311⬇L312 from TSP1 S3 ... or TSP1 S4 | 3.5e-05 s⁻¹ | Activity was observed for the S5 substrate with ADAMTS-7 human catalytic domain constructs compared to buffer alone, however the removal of the amino DEL sequence greatly reduced the signal for activity compared to the 51 substrate | 3.5e-05 s⁻¹ | No activity was observed with COMP candidate peptides COMP1 | 1.27e-05 s⁻¹ | also cleaved the overlapping TSP1 S2 substrate | 4.83e-05 s⁻¹ | No significant activity was detected at the defined ADAMTS1 cleavage site E311⬇L312 from TSP1 S3 | 2e-05 s⁻¹ |
